From patent publication US20250368734A1 (ANTENGENE BIOLOGICS, published 2025) come the findings set out here.

Where two headings read alike, the source gives them in different places.

The target of assay [1] is T1, cynomolgus monkey GPRC5D (cynomolgus monkey).
T1 construct: whole, on cells; HEK293T-cynoGPRC5D cells; also called cynoGPRC5D
Description: FACS, HEK293T-cynoGPRC5D cells. The text has this:
(§1) The subcloning plates were screened by Mirrorball assay and the subclones with good binding ability were expanded to 24-wells for confirmation tests. The specificity and cross-reactivity of these subclones were confirmed with FACS analysis. Briefly, parental HEK293T, HEK293T cells stably over-expressing human GPRC5D protein (i.e., HEK293T-hGPRC5D), HEK293T cells stably over-expressing cynomolgus monkey GPRC5D protein (i.e., HEK293T-cynoGPRC5D), HEK293T cells stably over-expressing mouse GPRC5D protein (i.e., HEK293T-mGPRC5D), and OPM2 cells were incubated with antibodies produced by each subclone, respectively. Fluorescent dye-conjugated secondary antibody was used to detect the binding of the primary antibody with the cells. Median fluorescence intensity (MFI) was measured by FACS analysis,
(§2) As a result, 21 antibodies were discovered with unique sequences showing positive binding with HEK293T-hGPRC5D and OPM2 cells. Among which, some clones could also bind with HEK293T-cynoGPRC5D and/or HEK293T-mGPRC5D. […] ATG596 was a positive human IgG1 control antibody which comprises a VH region having an amino acid sequence as set forth in SEQ ID NO: 199, and a VL region having an amino acid sequence as set forth in SEQ ID NO: 200.
(In flow cytometry, cells or beads pass a laser one at a time.)

For assay [2], the target named is T2, mouse GPRC5D (mouse, UniProt Q9JIL6 1-344).
T2 construct: whole, on cells; HEK293T-mGPRC5D cells; also called mGPRC5D; murine GPRC5D
T2 sequence (looked up): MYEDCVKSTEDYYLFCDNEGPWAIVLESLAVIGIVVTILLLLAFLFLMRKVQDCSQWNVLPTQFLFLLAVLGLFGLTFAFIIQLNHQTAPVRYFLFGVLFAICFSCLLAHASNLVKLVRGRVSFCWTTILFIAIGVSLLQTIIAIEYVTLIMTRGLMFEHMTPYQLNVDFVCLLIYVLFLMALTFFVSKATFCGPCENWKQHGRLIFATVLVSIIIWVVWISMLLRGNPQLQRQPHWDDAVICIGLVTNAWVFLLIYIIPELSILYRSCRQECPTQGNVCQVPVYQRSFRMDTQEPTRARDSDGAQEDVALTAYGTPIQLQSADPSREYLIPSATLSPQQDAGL
Description: FACS, HEK293T-mGPRC5D cells.
Source text: as §1, §2

The target in assay [3] is T3, human GPRC5D (human, UniProt Q9NZD1 1-345).
T3 construct: whole, on cells; also called hGPRC5D; G-protein coupled receptor family C group 5 member D
T3 sequence (Q9NZD1 whole entry): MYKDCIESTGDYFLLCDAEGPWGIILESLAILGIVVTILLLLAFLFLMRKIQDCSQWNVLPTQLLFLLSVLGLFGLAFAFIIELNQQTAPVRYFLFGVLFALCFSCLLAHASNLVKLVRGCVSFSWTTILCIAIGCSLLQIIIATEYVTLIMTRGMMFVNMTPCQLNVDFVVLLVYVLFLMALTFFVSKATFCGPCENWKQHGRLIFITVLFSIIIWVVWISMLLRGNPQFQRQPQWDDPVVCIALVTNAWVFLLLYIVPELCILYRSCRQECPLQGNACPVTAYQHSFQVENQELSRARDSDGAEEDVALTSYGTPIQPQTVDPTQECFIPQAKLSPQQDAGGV
Description: FACS, HEK293T-hGPRC5D cells. In a few lines: (§3)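 Subclone antibodies incubated with parental or GPRC5D-overexpressing HEK293T cells (human, cynomolgus, mouse) and OPM2 cells; bound antibody detected with fluorescent dye-conjugated secondary antibody. Median fluorescence intensity read by FACS.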

Assay [4] deals with T3, human GPRC5D. Description: FACS, OPM-2 cells. Summed up: as §3
Assay [5] deals with T2, mouse GPRC5D. Description: FACS, HEK293T-mGPRC5D cells. The source holds these as a separate data set.
Assay [6] addresses T2, mouse GPRC5D. Description: FACS, HEK293T-mGPRC5D cells.
Source text: as §1, §2
The source holds these as a separate data set.

In assay [7] the target is T1, cynomolgus monkey GPRC5D. Nature of the assay: FACS, HEK293T-cynoGPRC5D cells. This is another data set of the same source.
For assay [8], the target named is T1, cynomolgus monkey GPRC5D. Description: FACS, HEK293T-cynoGPRC5D cells. In a few lines: as §3
This is another data set of the same source.

B1: 12G12C2 (antibody, V domains shown)
VH: QIQLVQSGPELKMPGETVKISCKASGYTFTTYGLSWVKQAPGKGLKWMGWINTFSGVPIYADDFKGRFAFSLETSASTAYLQINNLKNEDTATYFCARWGIRQRGDYWGQGATLTVSS
VL: QIVLTQSPAIMSASPGEKVTMTCSASSSVSYLHWYQQKSGTSPKRWIYDTSKLASGVPVRFSGSGSETSYSLTISSMEAEDAATYYCQQWTSNPPTFGGGTKLEIK
notes: Mouse monoclonal antibody from hybridoma subclone
Take B1: the “% Positive” value worked out at 96.2% with cynomolgus monkey GPRC5D [1], 99% with mouse GPRC5D [2], 98.7% with human GPRC5D [3] and 98.4% with human GPRC5D [4]. The MFI with cynomolgus monkey GPRC5D [1] was determined as 24700; with mouse GPRC5D [2] it was 7080; with human GPRC5D [3] it was 32100; in the assay with human GPRC5D [4], 1070.

B2: ATG596 (antibody, V domains shown)
VH: QVQLVQSGAEVKKPGASVKVSCKASGYSFTGYTMNWVRQAPGQGLEWMGLINPYNSDTNYAQKLQGRVTMTTDTSTSTAYMELRSLRSDDTAVYYCARVALRVALDYWGQGTLVTVSS
VL: DIQMTQSPSSLSASVGDRVTITCKASQNVATHVGWYQQKPGKAPKRLIYSASYRYSGVPSRFSGSGSGTEFTLTISNLQPEDFATYYCQQYNRYPYTFGQGTKLEIK
notes: Human IgG1; also called benchmark antibody ATG596; positive human IgG1 control antibody
With B2, the “% Positive” value with cynomolgus monkey GPRC5D [1] came to 98.5%; with mouse GPRC5D [2], 98.2%; with mouse GPRC5D [6] it was 97.3%; in the assay with cynomolgus monkey GPRC5D [8], 98.6%. The MFI in the assay with cynomolgus monkey GPRC5D [1] was 7400; with mouse GPRC5D [2] it was 14600; in the assay with mouse GPRC5D [6], 12400; with cynomolgus monkey GPRC5D [8] it was 6580. Besides, the EC50 (commonly the concentration that produces a half-maximal response) in the assay with mouse GPRC5D [5] is 25.5 nM; with cynomolgus monkey GPRC5D [7], 26.6 nM. Besides, the Top amounted to 45600 with mouse GPRC5D [5] and 22500 with cynomolgus monkey GPRC5D [7].

B3: 20C4E1 (antibody, V domains shown)
VH: EVRLVESGGALVRPGGSLKLSCAASGFTFSDYGMHWVRQAPEKGLEWIAFISSVSFTIYYADTVKGRFTISRDNAKNTLFLQMTSLRSEDTALYYCTRLGPHWYFDVWGTGTTVTVSS
VL: DVVLTQTPLSLPVSLGDQASISCRSSQSLVYSNGNTYLHWFLQKPGQSPQLLIYKVSNRFSGVPDRFSGSGSGTDFTLKISRVEAEDLGVYFCSQSTPVPTFGGGTKLEIK
notes: as for B1
Take B3: the “% Positive” value came to 99.2% with cynomolgus monkey GPRC5D [1], 82.7% with mouse GPRC5D [2], 99.9% with human GPRC5D [3] and 99.5% with human GPRC5D [4]. The MFI stood at 31300 in the assay with cynomolgus monkey GPRC5D [1], 592 in the assay with mouse GPRC5D [2], 38900 with human GPRC5D [3] and 2020 with human GPRC5D [4].

B4: 15D6G2 (antibody, V domains shown)
VH: EVQLVESGGDLVKPGGYLRLSCAASGFTFSSHGMSWVRQTPDKRLEWVATISSGGRNTYYPDSVKGRFTISRDNAKNILYLQMSSLKSEDTAMFYCTRHSGDAMDYWGQGTSVTVSS
VL: DILLTQSPAILSVSPGERVSFSCRASQSIGTNIHWYQQRTNGSPRLLIKYASESISGIPSRFSGSGSGTDFTLSINSVESEDIADYYCQQSKSWPTFGGGTKLEIK
notes: as for B1
Regarding B4, the “% Positive” value turned out to be 99.7% with cynomolgus monkey GPRC5D [1], 14.6% with mouse GPRC5D [2], 99.5% with human GPRC5D [3] and 99.4% in the assay with human GPRC5D [4]. Besides, the MFI with cynomolgus monkey GPRC5D [1] came out at 7760; with mouse GPRC5D [2] it was 150; with human GPRC5D [3] it was 32800; with human GPRC5D [4] it was 1740.
